Experimental data from paper doi:10.1101/2021.05.24.445485.

Molecular target: Escherichia coli MRE600 30S ribosomal subunits (E. coli)
Assay: ITC

B1: initiation factor IF1 (natural protein)
chain: MAKEDNIEMQGTVLETLPNTMFRVELENGHVVTAHISGKMRKNYIRILTGDKVTVELTPYDLSKGRIVFRSR
Kd: 806 nM
